Among the data in US20200368364A1, “CYSTEINE PEPTIDE-ENABLED ANTIBODIES” (City of Hope, priority 2016, published 2020) are EC50 of in vitro ADCC reporter assay (SKBR3 targets, Jurkat effector cells), independent measurement 1 and EC50 of in vitro ADCC reporter assay (SKBR3 targets, Jurkat effector cells), independent measurement 2 values, retold here.

In the assay the target is FcγRIIIa on Jurkat effector cells (UniProt P08637). Put plainly: cell-based or functional assay.
FcγRIIIa on Jurkat effector cells, sequence (P08637 17-254 limits assumed): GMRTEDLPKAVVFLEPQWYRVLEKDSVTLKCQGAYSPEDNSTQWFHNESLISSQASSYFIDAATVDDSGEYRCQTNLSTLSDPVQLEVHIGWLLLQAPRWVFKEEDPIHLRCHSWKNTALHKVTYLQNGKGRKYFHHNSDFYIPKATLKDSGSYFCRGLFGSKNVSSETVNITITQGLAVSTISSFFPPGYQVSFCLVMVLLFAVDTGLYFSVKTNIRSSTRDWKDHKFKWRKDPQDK

B1: templated αCD16-Fab construct with the C-terminal fusion (175Cys trastuzumab Fab + C-terminal meditope αCD16 nanobody) (bispecific antibody, part only; not given: trastuzumab Fab chains, V domains shown, part only)
VHH: EVQLVESGGELVQAGGSLRLSCAASGLTFSSYNMGWFRRAPGKEREFVASITWSGRDTFYADSVKGRFTISRDNAKNTVYLQMSSLKPEDTAVYYCAANPWPVAAPRSGTYWGQGTQVTVSSGSHHHHHHGGSQFDLCTRRLQS
Turning to B1, the EC50 of in vitro ADCC reporter assay (SKBR3 targets, Jurkat effector cells), independent measurement 1 was 3.2 pM and the EC50 of in vitro ADCC reporter assay (SKBR3 targets, Jurkat effector cells), independent measurement 2 amounted to 4.7 pM.
